Where two headings read alike, the source gives them in different places. Starred links: 1 amine or outer side, 2 acyl side, 3 side chain; linkers in the order of their positions; H or OH if unused. Non-standard residues stand in square brackets, D forms with d. Residues, ends and D or L forms follow the SMILES beside them. *: point of attachment. Benzoyl(4-SiFtBu2) = CC(C)(C)[Si](F)(c1ccc(C(=O)*)cc1)C(C)(C)C; X1 = CC(C)(C)[Si](F)(c1ccc(C[N+](C)(C)CC(=O)*)cc1)C(C)(C)C; DOTA = O=C(O)CN1CCN(CC(=O)O)CCN(CC(=O)*)CCN(CC(=O)O)CC1; d(γGlu) = O=C(O)[C@@H](CCC(=O)[*:2])N[*:1]; 1Nal = N[C@@H](Cc1cccc2ccccc12)C(=O)O; Hyp = O=C(O)[C@@H]1C[C@@H](O)CN1; PEG5 = NCCOCCOCCOCCOCCOCCC(=O)O; NMeNle = CCCC[C@H](NC)C(=O)O; PEG4 = NCCOCCOCCOCCOCCC(=O)O; dDap = NC[C@@H](N)C(=O)O
Legend:
CCK-2R = biological target: T1, CCK-2R (Rattus norvegicus, UniProt P30553); assay: Determination of IC50: CCK-2R affinity on AR4-2J cells, competition with [^177Lu]Lu-DOTA-PP-F11N; assay type: binding; settings: AR4-2J cells
T1 construct: The CCK-2R expressing rat pancreatic tumor cells AR4-2J; host or cells: AR4-2J rat pancreatic tumor cells
T1 sequence (P30553 1-452): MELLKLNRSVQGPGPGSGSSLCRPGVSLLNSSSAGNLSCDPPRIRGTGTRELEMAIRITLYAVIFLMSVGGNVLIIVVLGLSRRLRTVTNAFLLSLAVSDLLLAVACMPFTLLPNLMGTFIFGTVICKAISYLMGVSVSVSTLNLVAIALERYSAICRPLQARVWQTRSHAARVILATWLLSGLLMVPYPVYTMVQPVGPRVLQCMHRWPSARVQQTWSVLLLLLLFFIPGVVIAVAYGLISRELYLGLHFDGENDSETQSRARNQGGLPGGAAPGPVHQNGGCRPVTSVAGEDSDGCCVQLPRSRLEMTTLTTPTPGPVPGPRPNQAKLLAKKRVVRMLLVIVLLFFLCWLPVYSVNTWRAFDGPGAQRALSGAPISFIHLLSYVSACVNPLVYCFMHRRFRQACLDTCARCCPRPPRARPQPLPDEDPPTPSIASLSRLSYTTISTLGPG
In short: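 Competitive displacement of 0.3 pmol/well [177Lu]Lu-DOTA-PP-F11N by compounds (10^-10 to 10^-4 M) on AR4-2J cells in BSA-supplemented medium, 3 h at 37 °C. Free label was collected from medium plus PBS rinse, and cell-bound label was recovered with 1 M NaOH, both measured by γ-counter. Each IC50 was determined twice, in triplicate.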

[1] = n-Octanol-PBS distribution coefficient (logD7.4); assay type: physicochemical; settings: for logD7.4 (n ≥ 5), ^177Lu-labeled: pH = 7.4, ^177Lu-labeled
Protocol: Approximately 1 MBq of the labeled tracer was dissolved in 1 mL of a 1/1 mixture (v/v) of phosphate buffered saline (PBS, pH = 7.4) and n-octanol in an Eppendorf tube (1.5 mL). After vigorous mixing of the suspension for 3 min at rt, the vial was centrifuged at 9,000 rpm for 5 min (Biofuge 15, Heraeus Sepatech, Osterode, Germany) and 200 µL aliquots of both layers were measured in a γ-counter. The experiment was repeated at least five times.

[2] = biological target: T2, Human serum albumin (HSA) (Homo sapiens, UniProt P02768); assay: Determination of HSA binding on a Chiralpak HSA column; assay type: in vitro ADME; settings: for HSA binding [%]: Tab. 8, metal not stated (Fig. 18: ^natLu)
T2 construct: purchased Daicel, Tokyo, Japan H13H-2433
Protocol: Human serum albumin (HSA) binding of the CCK-2R-targeted compounds was determined as reported by Valko et al., using a Chiralpak HSA column (50 x 3 mm, 5 µm, H13H-2433, Daicel, Tokyo, Japan) at a constant flow rate of 0.5 mL/min at rt. Therefore, an aq. solution of NH4OAc (pH = 6.9, 50 mM) as mobile phase A and isopropanol as mobile phase B were freshly prepared. In order to calibrate the column prior to the experiments, the retention times of nine reference substances with a HSA binding in the range of 13 to 99% were determined using a gradient of 100% A (0 to 3 min), followed by 80% A (3 to 40 min). Furthermore, all substances tested, were dissolved in a mixture (1/1, v/v) of A and B reaching a final concentration of 0.5 mg/mL. The HSA binding of all rhCCK ligands tested, was determined using the same gradient as for the calibration probes. The non-linear regression of the calibration experiments and the CCK-2R ligands (Fig. 29) was established using the OriginPro 2016G software (Northampton, United States).

[3] = ^natLu-labeled, read-out: IC50 [nM] (n = 3), ^natLu-labeled

T2 sequence (P02768 25-609): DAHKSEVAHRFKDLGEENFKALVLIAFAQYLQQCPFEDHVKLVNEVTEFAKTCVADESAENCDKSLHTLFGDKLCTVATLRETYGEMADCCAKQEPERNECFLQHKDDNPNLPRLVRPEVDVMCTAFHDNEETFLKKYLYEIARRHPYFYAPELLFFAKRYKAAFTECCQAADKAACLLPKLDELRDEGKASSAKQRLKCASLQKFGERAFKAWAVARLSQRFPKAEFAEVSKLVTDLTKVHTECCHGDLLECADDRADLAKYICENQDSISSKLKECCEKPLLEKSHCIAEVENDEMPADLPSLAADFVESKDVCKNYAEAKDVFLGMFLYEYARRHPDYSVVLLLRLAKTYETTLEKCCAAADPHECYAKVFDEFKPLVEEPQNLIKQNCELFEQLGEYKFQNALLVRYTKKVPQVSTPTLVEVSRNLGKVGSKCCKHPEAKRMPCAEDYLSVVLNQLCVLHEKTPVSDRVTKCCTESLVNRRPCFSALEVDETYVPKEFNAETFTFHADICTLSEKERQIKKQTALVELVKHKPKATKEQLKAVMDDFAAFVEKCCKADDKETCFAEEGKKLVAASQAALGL

Structure (SMILES)	IC50 (CCK-2R; [3])	logD7.4 (n ≥ 5), ^177Lu-labeled [1]	HSA binding [%] [2]	other results
CCCC[C@@H](C(=O)N[C@@H](CC(=O)O)C(=O)N[C@@H](Cc1cccc2ccccc12)C(N)=O)N(C)C(=O)[C@H](Cc1c[nH]c2ccccc12)NC(=O)CCOCCOCCOCCOCCNC(=O)CC[C@@H](NC(=O)CCOCCOCCOCCOCCOCCOCCOCCOCCNC(=O)CC[C@@H](NC(=O)[C@@H](CNC(=O)c1ccc([Si](F)(C(C)(C)C)C(C)(C)C)cc1)NC(=O)CN1CCN(CC(=O)O)CCN(CC(=O)O)CCN(CC(=O)O)CC1)C(=O)O)C(=O)O [DOTA-rhCCK-70, DOTA-dap(SiFA)-γ-glu-(PEG7-γ-glu-(PEG)3-Trp-(N-Me)Nle-Asp-1-Nal-NH2]	12.6 ± 2 nM	−1.67 ± 0.08	89.3%	–
CCCC[C@@H](C(=O)N[C@@H](CC(=O)O)C(=O)N[C@@H](Cc1cccc2ccccc12)C(N)=O)N(C)C(=O)[C@H](Cc1c[nH]c2ccccc12)NC(=O)CCOCCOCCOCCOCCNC(=O)CC[C@@H](NC(=O)[C@@H]1C[C@@H](O)CN1C(=O)[C@@H]1C[C@@H](O)CN1C(=O)[C@@H]1C[C@@H](O)CN1C(=O)CC[C@@H](NC(=O)[C@@H](CNC(=O)c1ccc([Si](F)(C(C)(C)C)C(C)(C)C)cc1)NC(=O)CN1CCN(CC(=O)O)CCN(CC(=O)O)CCN(CC(=O)O)CC1)C(=O)O)C(=O)O [DOTA-rhCCK-83, DOTA-dap(SiFA)-γ-glu-(Hyp)3-γ-glu-(PEG)3-Trp-(N-Me)Nle-Asp-1-Nal-NH2] ({DOTA}-[dDap](Benzoyl(4-SiFtBu2))[d(γGlu)][Hyp][Hyp][Hyp][d(γGlu)][PEG4]W[NMeNle]D[1Nal]-NH2)	–	−1.50 ± 0.05	93.4%	IC50 (CCK-2R; read-out: IC50 [nM] (n = 3), ^natLu-labeled, ^natLu-labeled): 10 ± 0.9 nM
CCCC[C@@H](C(=O)N[C@@H](CC(=O)O)C(=O)N[C@@H](Cc1cccc2ccccc12)C(N)=O)N(C)C(=O)[C@H](Cc1c[nH]c2ccccc12)NC(=O)CCOCCOCCOCCOCCNC(=O)CC[C@@H](NC(=O)CCOCCOCCOCCOCCOCCNC(=O)[C@@H](CNC(=O)C[N+](C)(C)Cc1ccc([Si](F)(C(C)(C)C)C(C)(C)C)cc1)NC(=O)CN1CCN(CC(=O)O)CCN(CC(=O)O)CCN(CC(=O)O)CC1)C(=O)O [DOTA-rhCCK-90, DOTA-dap(SiFAlin)-(PEG)4-γ-glu-(PEG)3-Trp-(N-Me)Nle-Asp-1-Nal-NH2] ({DOTA}-[dDap](X1)[PEG5][d(γGlu)][PEG4]W[NMeNle]D[1Nal]-NH2)	9.85 ± 1 nM	−0.76 ± 0.09	94.5%	–
CCCC[C@@H](C(=O)N[C@@H](CC(=O)O)C(=O)N[C@@H](Cc1cccc2ccccc12)C(N)=O)N(C)C(=O)[C@H](Cc1c[nH]c2ccccc12)NC(=O)CCOCCOCCOCCOCCNC(=O)CC[C@@H](NC(=O)CCOCCOCCOCCOCCOCCOCCOCCOCCOCCOCCOCCOCCNC(=O)CC[C@@H](NC(=O)[C@@H](CNC(=O)c1ccc([Si](F)(C(C)(C)C)C(C)(C)C)cc1)NC(=O)CN1CCN(CC(=O)O)CCN(CC(=O)O)CCN(CC(=O)O)CC1)C(=O)O)C(=O)O [DOTA-rhCCK-76, DOTA-dap(SiFA)-γ-glu-(PEG)11-γ-glu-(PEG)3-Trp-(N-Me)Nle-Asp-1-Nal-NH2]	14.2 ± 0.9 nM	−1.82 ± 0.09	86.2%	logD7.4 (n ≥ 5), ^177Lu-labeled ([1]; listed as [^nat/177Lu]Lu-DOTA-rhCCK-76): -1.82 ± 0.09
CCCC[C@@H](C(=O)N[C@@H](CC(=O)O)C(=O)N[C@@H](Cc1cccc2ccccc12)C(N)=O)N(C)C(=O)[C@H](Cc1c[nH]c2ccccc12)NC(=O)CCOCCOCCOCCOCCNC(=O)[C@@H](CCC(=O)O)NC(=O)CN1CCN(CC(=O)O)CCN(CC(=O)O)CCN(CC(=O)O)CC1 [DOTA-CCK-66.2, DOTA-glu-(PEG)3-Trp-(N-Me)Nle-Asp-1-Nal-NH2] ({DOTA}-[dE][PEG4]W[NMeNle]D[1Nal]-NH2)	4.8 ± 0.9 nM	−2.69 ± 0.09	–	IC50 (CCK-2R; ^natCu-labeled, read-out: IC50 [nM] (n = 3), ^natCu-labeled): 5.8 ± 0.2 nM; IC50 (CCK-2R; ^natGa-labeled, read-out: IC50 [nM] (n = 3), ^natGa-labeled): 6 ± 1 nM; logD7.4 (n ≥ 5), ^64Cu-labeled ([1]; pH = 7.4, ^64Cu-labeled): −2.84 ± 0.08; logD7.4 (n ≥ 5), ^67Ga-labeled ([1]; pH = 7.4, ^67Ga-labeled): −2.55 ± 0.04; HSA binding [%], ^natCu-labeled [2]: 61.1%; HSA binding [%], ^natGa-labeled [2]: 54.2%; HSA binding [%], ^natLu-labeled [2]: 72.7%
CCCC[C@@H](C(=O)N[C@@H](CC(=O)O)C(=O)N[C@@H](Cc1cccc2ccccc12)C(N)=O)N(C)C(=O)[C@H](Cc1c[nH]c2ccccc12)NC(=O)CCOCCOCCOCCOCCNC(=O)CC[C@@H](NC(=O)CCOCCOCCOCCOCCOCCOCCOCCOCCOCCOCCOCCOCCNC(=O)CC[C@@H](NC(=O)[C@@H](CNC(=O)c1cc(C(=O)O)cc([Si](F)(C(C)(C)C)C(C)(C)C)c1)NC(=O)CN1CCN(CC(=O)O)CCN(CC(=O)O)CCN(CC(=O)O)CC1)C(=O)O)C(=O)O [DOTA-rhCCK-69, DOTA-dap(SiFA-ipa)-γ-glu-(PEG)11-γ-glu-(PEG)3-Trp-(N-Me)Nle-Asp-1-Nal-NH2]	43.1 ± 1.7 nM	−2.11 ± 0.09	84.7%	–
CCCC[C@@H](C(=O)N[C@@H](CC(=O)O)C(=O)N[C@@H](Cc1cccc2ccccc12)C(N)=O)N(C)C(=O)[C@H](Cc1c[nH]c2ccccc12)NC(=O)CCOCCOCCOCCOCCNC(=O)CC[C@@H](NC(=O)CCOCCOCCOCCOCCOCCOCCOCCOCCNC(=O)CC[C@@H](NC(=O)[C@@H](CNC(=O)C[N+](C)(C)Cc1ccc([Si](F)(C(C)(C)C)C(C)(C)C)cc1)NC(=O)CN1CCN(CC(=O)O)CCN(CC(=O)O)CCN(CC(=O)O)CC1)C(=O)O)C(=O)O [DOTA-rhCCK-71, DOTA-dap(SiFAlin)-γ-glu-(PEG)7-γ-glu-(PEG)3-Trp-(N-Me)Nle-Asp-1-Nal-NH2]	13.3 ± 1.3 nM	−1.63 ± 0.06	89.1%	–
CCCC[C@@H](C(=O)N[C@@H](CC(=O)O)C(=O)N[C@@H](Cc1cccc2ccccc12)C(N)=O)N(C)C(=O)[C@H](Cc1c[nH]c2ccccc12)NC(=O)CCOCCOCCOCCOCCNC(=O)CC[C@@H](NC(=O)CCOCCOCCOCCOCCOCCNC(=O)CC[C@@H](NC(=O)[C@@H](CNC(=O)C[N+](C)(C)Cc1ccc([Si](F)(C(C)(C)C)C(C)(C)C)cc1)NC(=O)CN1CCN(CC(=O)O)CCN(CC(=O)O)CCN(CC(=O)O)CC1)C(=O)O)C(=O)O [DOTA-rhCCK-91, DOTA-dap(SiFAlin)-γ-glu-(PEG)4-γ-glu-(PEG)3-Trp-(N-Me)Nle-Asp-1-Nal-NH2]	8.56 ± 0.7 nM	−1.66 ± 0.08	90.0%	IC50 (CCK-2R; read-out: IC50 [nM] (n = 3), ^natGa-labeled, ^natGa-labeled): 8.24 ± 1.6 nM

Reference: EP4631959A2, “NOVEL MINIGASTRIN-DERIVED CHOLECYSTOKININ 2 RECEPTOR BINDING MOLECULES FOR IMAGING AND TARGETED RADIOTHERAPY” (priority 2022, dated 2024)
